Results on 1 substance are retold here after article doi:10.1101/689042.

Assay [1] has as its target Sorbitol dehydrogenase SmoS from Sinorhizobium meliloti 1021 (Sinorhizobium meliloti 1021). Description: crystal structure.
For assay [2] the target is unchanged. Description: SEC.

For the substance “Sorbitol dehydrogenase SmoS from Sinorhizobium meliloti 1021 (enzyme)”, the stoichiometry N in assay [1] and in assay [2] was 4 each time.
